Measurements from publication PMC13541614 (Nature Methods, 2026).

Molecular target: H5N1 influenza hemagglutinin (HA) of A/Vietnam/1203/2004, native (wild type) (Influenza A virus A/Vietnam/1203/2004 …, UniProt Q5EP31, strain)
Assay: BLI
Conditions: both partners purified

B1: AZD3152 (anti-SARS-CoV-2 RBD antibody), IgG (antibody, V domains shown)
VH: EVQLVESGGGLVQPGRSLRLSCAASGFPFDDYAIHWVRLAPGKGLEWVSSISWDSGSIGYADSVKGRFTISRDNAKNSLYLQMNSLRAEDTALYYCAKGAFPGYSSGWYYGLEVWGQGTTVTVSS
VL: QSVVTQPPSASGSLGQSVTISCTGTSSDVGGYNYVSWYQQHPGKAPKLMIFEVSKRPSGVPDRFSGSKSGNTASLTVSGLQAEDEADYYCSSYAGNKGVFGGGTKLTVL
notes: also called control antibody; source: Expi293F, transfected, purified (HiTrap MabSelect PrismA); copies: 2 + 2
  binding result: no binding (tested: 100 nM)
